Experimental data as given in US20040132029, “Method of error reduction in nucleic acid populations” (published 2004).

Biological target: T1, MutS (MutSt) (UniProt Q56215 Q56215:1-811)
T1 sequence: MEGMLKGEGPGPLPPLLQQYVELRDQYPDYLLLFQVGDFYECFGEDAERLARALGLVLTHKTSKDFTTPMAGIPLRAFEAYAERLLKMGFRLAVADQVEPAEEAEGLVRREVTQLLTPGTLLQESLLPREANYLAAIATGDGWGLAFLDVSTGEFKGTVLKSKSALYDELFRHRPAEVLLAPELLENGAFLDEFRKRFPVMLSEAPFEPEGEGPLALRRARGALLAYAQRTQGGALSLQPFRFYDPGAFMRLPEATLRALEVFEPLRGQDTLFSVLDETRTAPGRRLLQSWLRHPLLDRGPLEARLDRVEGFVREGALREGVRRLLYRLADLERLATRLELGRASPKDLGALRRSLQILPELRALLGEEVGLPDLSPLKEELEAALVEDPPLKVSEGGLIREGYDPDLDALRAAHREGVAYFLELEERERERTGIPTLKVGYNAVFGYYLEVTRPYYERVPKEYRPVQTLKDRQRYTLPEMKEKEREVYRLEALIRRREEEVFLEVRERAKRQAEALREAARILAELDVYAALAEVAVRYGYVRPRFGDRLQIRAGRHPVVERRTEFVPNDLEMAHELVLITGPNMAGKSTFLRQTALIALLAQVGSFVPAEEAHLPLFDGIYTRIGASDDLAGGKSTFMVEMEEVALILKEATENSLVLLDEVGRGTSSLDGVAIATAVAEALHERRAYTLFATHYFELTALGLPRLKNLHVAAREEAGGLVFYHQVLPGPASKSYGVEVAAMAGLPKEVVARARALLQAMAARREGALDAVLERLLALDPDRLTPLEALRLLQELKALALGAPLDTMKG
Assay: EMSA; 10 mM Tris-HCl pH 8.8, 5 mM MgCl2, 0.1% Triton X-100, 37 C; preferred over wt; tenfold unlabeled del20 competes, proteinase K removes shift
Settings: tags: Epicenter Technologies, Madison, Wis; label: 5' fluorescein on anti-sense strand; single unpaired base (deletion at position 20 of anti-sense)
Protocol: In a typical reaction 80 pmols of unlabeled sense strand were mixed with 40 pmols of Cy5 labeled anti-sense strand and 40 pmols of fluorescein labeled mutant strand (del20 or C>A) in 1× Muts buffer ( 10 mM Tris-HCl pH 8.8, 5 mM MgCl₂, 0.1% TritonX-100). The mixture was annealed in a thermocycler after being first denatured at 95° C. for 5 minutes. The mixture was then cooled at 0.2° C./sec until temperature reaches 25° C. The duplex DNA thus created is illustrated in FIG. 5.
2 or 6 μg of MutSₜ protein (Epicenter Technologies, Madison, Wis.) was added to the annealed oligonucleotides. The mixture was then incubated at 37° C. for 30 minutes.

B1: GFPuv 351-390 del20 heteroduplex (dsDNA)
DNA 1: GTTAATGGGCACAAATTTTCTGTCAGTGGAGAGGGTGAAG
DNA 2: CTTCACCCTCTCCACTGACGAAAATTTGTGCCCATTAAC
  binding result: binds
